{"source": "patent US20230212267A1", "target": "SARS-CoV-2 Spike protein on pseudovirus (wild type) (SARS-CoV-2) (UniProt P0DTC2)", "assay": "cell-based or functional assay", "data": [{"substance": "ACE2-Ig (positive control of the pseudovirus neutralization assay) (Fc fusion)", "values": [{"measurement": "IC50, pseudovirus neutralization", "result": 0.9, "unit": "µg/mL"}]}]}
